Test results published in patent US20180282372.

T1: Aktide biosensor RRRRRSVDSHGGKbiotinGG (SEQ ID NO:11)
T1 sequence: RRRRRSVDSHGGKGG

T2: candidate biosensor peptide substrate WHLQTWCGYGGKbiotinGG (SEQ ID NO:12)
T2 chain: WHLQTWCGYGGKGG

B1: LKB1 serine/threonine kinase (Liver Kinase B1) (protein)
chain: MEVVDPQQLGMFTEGELMSVGMDTFIHRIDSTEVIYQPRRKRAKLIGKYLMGDLLGEGSYGKVKEVLDSETLCRRAVKILKKKKLRRIPNGEANVKKEIQLLRRLRHKNVIQLVDVLYNEEKQKMYMVMEYCVCGMQEMLDSVPEKRFPVCQAHGYFCQLIDGLEYLHSQGIVHKDIKPGNLLLTTGGTLKISDLGVAEALHPFAADDTCRTSQGSPAFQPPEIANGLDTFSGFKVDIWSAGVTLYNITTGLYPFEGDNIYKLFENIGKGSYAIPGDCGPPLSDLLKGMLEYEPAKRFSIRQIRQHSWFRKKHPPAEAPVPIPPSPDTKDRWRSMTVVPYLEDLHGADEDEDLFDIEDDIIYTQDFTVPGQVPEEEASHNGQRRGLPKAVCMNGTEAAQLSTKSRAEGRAPNPARKACSASSKIRRLSACKQQ

How the values were obtained:
[1] = test system: T1, Aktide biosensor RRRRRSVDSHGGKbiotinGG (SEQ ID NO:11)
[2] = target: T2, candidate biosensor peptide substrate …
[3] = target: the other five peptides (of six candidate biosensors peptides screened with LKB1)

Molecule | phosphorylation of the peptide in a time-course in vitro kinase assay (MALDI/TOF/TOF-MS; 0, 30, 60, 120 min) [1] | phosphorylation of the peptide in an in vitro kinase assay (MALDI/TOF/TOF-MS) [1] | phosphorylation of the peptide in an in vitro kinase assay (LC ESI-MS) [2] | phosphorylation of the peptide in an in vitro kinase assay screen with LKB1 [3]
Akt serine/threonine kinase (protein kinase B) | Nearly complete conversion to phosphorylated product was observed after 2 hr. | this peptide sequence is able to be efficiently phosphorylated by Akt over a 2 hr kinase assay |  | 
B1 |  |  | this initial peptide sequence is able to be partially phosphorylated by LKB1 after a 3 hr reaction | Out of these six, one sequence, WHLQTWCGYGGKbiotinGG (SEQ ID NO:12), was shown to be partially phosphorylated by LKB1 after a 3 hr reaction.
